Assay results reported in article PMC314469, “Protein Interaction Networks by Proteome Peptide Scanning” (PLoS Biology, 2004).

T1: Abp1 SH3 (ABP1_YEAST), P15891
T1 chain: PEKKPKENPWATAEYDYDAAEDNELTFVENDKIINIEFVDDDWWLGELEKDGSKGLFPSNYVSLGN


Target: T1, Abp1 SH3 (ABP1_YEAST), P15891
Test: SPOT array

Binder	normalised SPOT signal, Boehringer light units (BLU); mean over the file's lines of this peptide
EQAPTGLVLEPSKP [YBR284W 656-669]	51.6
EKFRVNRPIQLRP [YHL038C 520-532]	1490
EHAVANGPSHRRP [YBL101C 762-774]	97.9
ESIDASKPEKVKP [YFL025C 369-381]	132
ELRGLDDPTIVKP [YGR099W 548-560]	152
ERSKNLIPPAFRP [YGL173C 598-610]	488
EQIVLGQPKTNRP [YDR062W 281-293]	87.7
EVRDLWLSILPTKP [YBR115C 851-864]	86.6
EKHELIIPTPSKP [YCL027W 384-396]	140
ENEFQVIPIRFKP [YER085C 144-156]	127
ESFRERPLEPPRKP [YDR448W 139-152]	675
EPKMQKQTIFPGKP [YHL022C 194-207]	619
ENRKGEKDAAPAKP [YGL061C 171-184]	87.1
EPPQDQAPSLPPKP [YCL008C 154-167]	156
EKARNVEYKKPQKP [YCL061C 306-319]	80.9
EQKLPTALLSPLRP [YCL051W 196-209]	126
ELNLKLLNLFPSKP [YGR134W 1043-1056]	164
EKVYRTEEKAPIRP [YDL203C 183-196]	38.6
ESFSSGSLSPPSRP [YDR348C 88-101]	48.8
ERLQSQPPRPPRP [YGR268C 21-33]	10400
ETQPIQNFQPPPKP [YBR108W 650-663]	82.5
ESKMSLAPHEYKP [YGR097W 219-231]	97.4
EVPMFVNPANAKP [YHL038C 181-193]	70.8
ETELGHVPLVERP [YDL079C 472-484]	136
ELKERDFDQAPLKP [YCR088W 207-220]	89.2
EIERHETPLNIRP [YGR267C 9-21]	0
ETLWDLPPKFPEKP [YDR444W 182-195]	55.6
EPVTKERPHFNKP [YER161C 148-160]	534

More lines, now with the values ahead:

normalised SPOT signal, Boehringer light units (BLU); mean over the file's lines of this peptide	Binder
77.9	ERRKQLKKQGPKRP [YKL032C 351-364]
18.6	EPASVYESNGPNKP [YMR086W 699-712]
106	ERPLPDLPSTIKP [YKR027W 750-762]
21.5	ENPIDKLDGTPKRP [YIL063C 22-35]
24	ELQNEDWPNESKP [YNL274C 336-348]
84.9	ENYLSTRPSVLKP [YOR217W 594-606]
250	EVRKVYIPKVVKP [YJR143C 526-538]
138	ENEPTLNPFTNKP [YJR122W 411-423]
54.3	ETVTNSGGLQPLKP [YOR329C 474-487]
182	EKGQALVVFSPHRP [YLR285W 193-206]
67.3	EKEKEKSPEISKP [YNR051C 181-193]
147	ESASHETPTDLRP [YKL204W 262-274]
106	EHFDIPPPAIMKP [YOR116C 588-600]
96.5	EHMLYIIPPQIKP [YIL103W 218-230]
201	ERLERQFEEVPFRP [YPL027W 171-184]
80.3	ENAVKSEQQFPGRP [YOR347C 67-80]
126	EIELLVDSKDPNKP [YLL040C 1996-2009]
130	ELQKRVGPDNFKP [YKL155C 149-161]
27.2	ESLNLQFQAHPPKP [YKR050W 395-408]
13.6	EIFPNSKPLQPKP [YJL010C 631-643]
67.4	EQEEFTSPYFGRP [YIL031W 818-830]
124	EKTGNAHPLGFRP [YPR016W-A 66-78]
910	EKASRFRPTIDRP [YJL196C 11-23]
615	ETGVSIKNPRPSRP [YPR096C 4-17]
105	ESKLSSLIIPPSKP [YJL193W 97-110]
248	EIQNGKRPVLLKP [YIR007W 368-380]
395	EHSRVKLPHSPKP [YOR208W 421-433]
98.8	ELFIIIQPPVMKP [YIR007W 413-425]
143	EMYQDKLPPNVKP [YHR190W 379-391]
146	ESLKLYYRHRPQKP [YOL164W 141-154]
